Measurements: patent publication US20200199241A1 (Chugai, published 2020)

What follows are binders tested against T1, human FcRn (soluble human FcRn complexed with β2-microglobulin) (human, UniProt P61769 21-119, limits assumed) (assay: SPR, pH 7.0;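 also: antibodies captured on a Protein L sensor chip with human FcRn injected as analyte, KD calculated from fitted association and dissociation rate constants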).
T1 construct: also called hFcRn
T1 sequence (chain, as listed by the source limits assumed, chain 1 of 2): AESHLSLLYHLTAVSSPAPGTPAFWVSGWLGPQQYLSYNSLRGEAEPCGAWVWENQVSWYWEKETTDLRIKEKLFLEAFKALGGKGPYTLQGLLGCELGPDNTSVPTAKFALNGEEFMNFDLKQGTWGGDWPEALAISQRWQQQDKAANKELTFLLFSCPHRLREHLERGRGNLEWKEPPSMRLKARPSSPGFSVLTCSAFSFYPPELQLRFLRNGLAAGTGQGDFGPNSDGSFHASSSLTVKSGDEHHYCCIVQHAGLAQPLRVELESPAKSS
T1 sequence (P61769 21-119 limits assumed, chain 2 of 2): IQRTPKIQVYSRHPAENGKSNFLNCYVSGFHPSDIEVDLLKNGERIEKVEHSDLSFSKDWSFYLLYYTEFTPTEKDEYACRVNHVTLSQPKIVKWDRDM

| Binder | Kd |
| --- | --- |
| IgG1-F241 (antibody, EU numbering; copies: 2 + 2) heavy: QVQLQESGPGLVKPSETLSLTCAVSGHSISHDHAWSWVRQPPGEGLEWIGFISYSGITNYNPSLQGRVTISRDNSKNTLYLQMNSLRAEDTAVYYCARSLARTTAMDYWGEGTLVTVSSASTKGPSVFPLAPSSKSTSGGTAALGCLVKDYFPEPVTVSWNSGALTSGVHTFPAVLQSSGLYSLSSVVTVPSSSLGTQTYICNVNHKPSNTKVDKKVEPKSCDKTHTCPPCPAPELLGGPSVFLFPPKPKDTLYISRTPEVTCVVVDVSHEDPEVKFNWYVDGVEVHNAKTKPREEQYNSTYRVVSVLTVLHQDWLNGKEYKCKVSNKALPAPIEKTISKAKGQPREPQVYTLPPSRDELTKNQVSLTCLVKGFYPSDIAVEWESNGQPENNYKTTPPVLDSDGSFFLYSKLTVDKSRWQQGNVFSCSVGHEALHYHYTQKSLSLSP light: not shown | 1500 nM |
| IgG1-F243 (antibody, EU numbering; copies: 2 + 2) heavy: QVQLQESGPGLVKPSETLSLTCAVSGHSISHDHAWSWVRQPPGEGLEWIGFISYSGITNYNPSLQGRVTISRDNSKNTLYLQMNSLRAEDTAVYYCARSLARTTAMDYWGEGTLVTVSSASTKGPSVFPLAPSSKSTSGGTAALGCLVKDYFPEPVTVSWNSGALTSGVHTFPAVLQSSGLYSLSSVVTVPSSSLGTQTYICNVNHKPSNTKVDKKVEPKSCDKTHTCPPCPAPELLGGPSVFLFPPKPKDTLYISRTPEVTCVVVDVSHEDPEVKFNWYVDGVEVHNAKTKPREEQYNSTYRVVSVLTVLHQDWLNGKEYKCKVSNKALPAPIEKTISKAKGQPREPQVYTLPPSRDELTKNQVSLTCLVKGFYPSDIAVEWESNGQPENNYKTTPPVLDSDGSFFLYSKLTVDKSRWQQGNVFSCSVIHEALHYHYTQKSLSLSP light: not shown | 180 nM |
| IgG1-F244 (antibody, EU numbering; copies: 2 + 2) heavy: QVQLQESGPGLVKPSETLSLTCAVSGHSISHDHAWSWVRQPPGEGLEWIGFISYSGITNYNPSLQGRVTISRDNSKNTLYLQMNSLRAEDTAVYYCARSLARTTAMDYWGEGTLVTVSSASTKGPSVFPLAPSSKSTSGGTAALGCLVKDYFPEPVTVSWNSGALTSGVHTFPAVLQSSGLYSLSSVVTVPSSSLGTQTYICNVNHKPSNTKVDKKVEPKSCDKTHTCPPCPAPELLGGPSVFLFPPKPKDTLYISRTPEVTCVVVDVSHEDPEVKFNWYVDGVEVHNAKTKPREEQYNSTYRVVSVLTVLHQDWLNGKEYKCKVSNKALPAPIEKTISKAKGQPREPQVYTLPPSRDELTKNQVSLTCLVKGFYPSDIAVEWESNGQPENNYKTTPPVLDSDGSFFLYSKLTVDKSRWQQGNVFSCSVKHEALHYHYTQKSLSLSP light: not shown | 1300 nM |
| IgG1-F252 (antibody, EU numbering; copies: 2 + 2) heavy: QVQLQESGPGLVKPSETLSLTCAVSGHSISHDHAWSWVRQPPGEGLEWIGFISYSGITNYNPSLQGRVTISRDNSKNTLYLQMNSLRAEDTAVYYCARSLARTTAMDYWGEGTLVTVSSASTKGPSVFPLAPSSKSTSGGTAALGCLVKDYFPEPVTVSWNSGALTSGVHTFPAVLQSSGLYSLSSVVTVPSSSLGTQTYICNVNHKPSNTKVDKKVEPKSCDKTHTCPPCPAPELLGGPSVFLFPPKPKDTLYISRTPEVTCVVVDVSHEDPEVKFNWYVDGVEVHNAKTKPREEQYNSTYRVVSVLTVLHQDWLNGKEYKCKVSNKALPAPIEKTISKAKGQPREPQVYTLPPSRDELTKNQVSLTCLVKGFYPSDIAVEWESNGQPENNYKTTPPVLDSDGSFFLYSKLTVDKSRWQQGNVFSCSVWHEALHYHYTQKSLSLSP light: not shown | 1000 nM |
| IgG1-F254 (antibody, EU numbering; copies: 2 + 2) heavy: QVQLQESGPGLVKPSETLSLTCAVSGHSISHDHAWSWVRQPPGEGLEWIGFISYSGITNYNPSLQGRVTISRDNSKNTLYLQMNSLRAEDTAVYYCARSLARTTAMDYWGEGTLVTVSSASTKGPSVFPLAPSSKSTSGGTAALGCLVKDYFPEPVTVSWNSGALTSGVHTFPAVLQSSGLYSLSSVVTVPSSSLGTQTYICNVNHKPSNTKVDKKVEPKSCDKTHTCPPCPAPELLGGPSVFLFPPKPKDTLWISRTPEVTCVVVDVSHEDPEVKFNWYVDGVEVHNAKTKPREEQYNSTYRVVSVLQVLHQDWLNGKEYKCKVSNKALPAPIEKTISKAKGQPREPQVYTLPPSRDELTKNQVSLTCLVKGFYPSDIAVEWESNGQPENNYKTTPPVLDSDGSFFLYSKLTVDKSRWQQGNVFSCSVYHEALHYHYTQKSLSLSP light: not shown | 75 nM |
| IgG1-F249 (antibody, EU numbering; copies: 2 + 2) heavy: QVQLQESGPGLVKPSETLSLTCAVSGHSISHDHAWSWVRQPPGEGLEWIGFISYSGITNYNPSLQGRVTISRDNSKNTLYLQMNSLRAEDTAVYYCARSLARTTAMDYWGEGTLVTVSSASTKGPSVFPLAPSSKSTSGGTAALGCLVKDYFPEPVTVSWNSGALTSGVHTFPAVLQSSGLYSLSSVVTVPSSSLGTQTYICNVNHKPSNTKVDKKVEPKSCDKTHTCPPCPAPELLGGPSVFLFPPKPKDTLYISRTPEVTCVVVDVSHEDPEVKFNWYVDGVEVHNAKTKPREEQYNSTYRVVSVLTVLHQDWLNGKEYKCKVSNKALPAPIEKTISKAKGQPREPQVYTLPPSRDELTKNQVSLTCLVKGFYPSDIAVEWESNGQPENNYKTTPPVLDSDGSFFLYSKLTVDKSRWQQGNVFSCSVSHEALHYHYTQKSLSLSP light: not shown | 640 nM |
| IgG1-F245 (antibody, EU numbering; copies: 2 + 2) heavy: QVQLQESGPGLVKPSETLSLTCAVSGHSISHDHAWSWVRQPPGEGLEWIGFISYSGITNYNPSLQGRVTISRDNSKNTLYLQMNSLRAEDTAVYYCARSLARTTAMDYWGEGTLVTVSSASTKGPSVFPLAPSSKSTSGGTAALGCLVKDYFPEPVTVSWNSGALTSGVHTFPAVLQSSGLYSLSSVVTVPSSSLGTQTYICNVNHKPSNTKVDKKVEPKSCDKTHTCPPCPAPELLGGPSVFLFPPKPKDTLYISRTPEVTCVVVDVSHEDPEVKFNWYVDGVEVHNAKTKPREEQYNSTYRVVSVLTVLHQDWLNGKEYKCKVSNKALPAPIEKTISKAKGQPREPQVYTLPPSRDELTKNQVSLTCLVKGFYPSDIAVEWESNGQPENNYKTTPPVLDSDGSFFLYSKLTVDKSRWQQGNVFSCSVNHEALHYHYTQKSLSLSP light: not shown | 470 nM |
| IgG1-F253 (antibody, EU numbering; copies: 2 + 2) heavy: QVQLQESGPGLVKPSETLSLTCAVSGHSISHDHAWSWVRQPPGEGLEWIGFISYSGITNYNPSLQGRVTISRDNSKNTLYLQMNSLRAEDTAVYYCARSLARTTAMDYWGEGTLVTVSSASTKGPSVFPLAPSSKSTSGGTAALGCLVKDYFPEPVTVSWNSGALTSGVHTFPAVLQSSGLYSLSSVVTVPSSSLGTQTYICNVNHKPSNTKVDKKVEPKSCDKTHTCPPCPAPELLGGPSVFLFPPKPKDTLYISRTPEVTCVVVDVSHEDPEVKFNWYVDGVEVHNAKTKPREEQYNSTYRVVSVLTVLHQDWLNGKEYKCKVSNKALPAPIEKTISKAKGQPREPQVYTLPPSRDELTKNQVSLTCLVKGFYPSDIAVEWESNGQPENNYKTTPPVLDSDGSFFLYSKLTVDKSRWQQGNVFSCSVYHEALHYHYTQKSLSLSP light: not shown | 710 nM |
| IgG1-F246 (antibody, EU numbering; copies: 2 + 2) heavy: QVQLQESGPGLVKPSETLSLTCAVSGHSISHDHAWSWVRQPPGEGLEWIGFISYSGITNYNPSLQGRVTISRDNSKNTLYLQMNSLRAEDTAVYYCARSLARTTAMDYWGEGTLVTVSSASTKGPSVFPLAPSSKSTSGGTAALGCLVKDYFPEPVTVSWNSGALTSGVHTFPAVLQSSGLYSLSSVVTVPSSSLGTQTYICNVNHKPSNTKVDKKVEPKSCDKTHTCPPCPAPELLGGPSVFLFPPKPKDTLYISRTPEVTCVVVDVSHEDPEVKFNWYVDGVEVHNAKTKPREEQYNSTYRVVSVLTVLHQDWLNGKEYKCKVSNKALPAPIEKTISKAKGQPREPQVYTLPPSRDELTKNQVSLTCLVKGFYPSDIAVEWESNGQPENNYKTTPPVLDSDGSFFLYSKLTVDKSRWQQGNVFSCSVPHEALHYHYTQKSLSLSP light: not shown | 1100 nM |
| IgG1-F250 (antibody, EU numbering; copies: 2 + 2) heavy: QVQLQESGPGLVKPSETLSLTCAVSGHSISHDHAWSWVRQPPGEGLEWIGFISYSGITNYNPSLQGRVTISRDNSKNTLYLQMNSLRAEDTAVYYCARSLARTTAMDYWGEGTLVTVSSASTKGPSVFPLAPSSKSTSGGTAALGCLVKDYFPEPVTVSWNSGALTSGVHTFPAVLQSSGLYSLSSVVTVPSSSLGTQTYICNVNHKPSNTKVDKKVEPKSCDKTHTCPPCPAPELLGGPSVFLFPPKPKDTLYISRTPEVTCVVVDVSHEDPEVKFNWYVDGVEVHNAKTKPREEQYNSTYRVVSVLTVLHQDWLNGKEYKCKVSNKALPAPIEKTISKAKGQPREPQVYTLPPSRDELTKNQVSLTCLVKGFYPSDIAVEWESNGQPENNYKTTPPVLDSDGSFFLYSKLTVDKSRWQQGNVFSCSVTHEALHYHYTQKSLSLSP light: not shown | 290 nM |
| IgG1-F242 (antibody, EU numbering; copies: 2 + 2) heavy: QVQLQESGPGLVKPSETLSLTCAVSGHSISHDHAWSWVRQPPGEGLEWIGFISYSGITNYNPSLQGRVTISRDNSKNTLYLQMNSLRAEDTAVYYCARSLARTTAMDYWGEGTLVTVSSASTKGPSVFPLAPSSKSTSGGTAALGCLVKDYFPEPVTVSWNSGALTSGVHTFPAVLQSSGLYSLSSVVTVPSSSLGTQTYICNVNHKPSNTKVDKKVEPKSCDKTHTCPPCPAPELLGGPSVFLFPPKPKDTLYISRTPEVTCVVVDVSHEDPEVKFNWYVDGVEVHNAKTKPREEQYNSTYRVVSVLTVLHQDWLNGKEYKCKVSNKALPAPIEKTISKAKGQPREPQVYTLPPSRDELTKNQVSLTCLVKGFYPSDIAVEWESNGQPENNYKTTPPVLDSDGSFFLYSKLTVDKSRWQQGNVFSCSVHHEALHYHYTQKSLSLSP light: not shown | 850 nM |
| IgG1-F247 (antibody, EU numbering; copies: 2 + 2) heavy: QVQLQESGPGLVKPSETLSLTCAVSGHSISHDHAWSWVRQPPGEGLEWIGFISYSGITNYNPSLQGRVTISRDNSKNTLYLQMNSLRAEDTAVYYCARSLARTTAMDYWGEGTLVTVSSASTKGPSVFPLAPSSKSTSGGTAALGCLVKDYFPEPVTVSWNSGALTSGVHTFPAVLQSSGLYSLSSVVTVPSSSLGTQTYICNVNHKPSNTKVDKKVEPKSCDKTHTCPPCPAPELLGGPSVFLFPPKPKDTLYISRTPEVTCVVVDVSHEDPEVKFNWYVDGVEVHNAKTKPREEQYNSTYRVVSVLTVLHQDWLNGKEYKCKVSNKALPAPIEKTISKAKGQPREPQVYTLPPSRDELTKNQVSLTCLVKGFYPSDIAVEWESNGQPENNYKTTPPVLDSDGSFFLYSKLTVDKSRWQQGNVFSCSVQHEALHYHYTQKSLSLSP light: not shown | 440 nM |
| IgG1-F251 (antibody, EU numbering; copies: 2 + 2) heavy: QVQLQESGPGLVKPSETLSLTCAVSGHSISHDHAWSWVRQPPGEGLEWIGFISYSGITNYNPSLQGRVTISRDNSKNTLYLQMNSLRAEDTAVYYCARSLARTTAMDYWGEGTLVTVSSASTKGPSVFPLAPSSKSTSGGTAALGCLVKDYFPEPVTVSWNSGALTSGVHTFPAVLQSSGLYSLSSVVTVPSSSLGTQTYICNVNHKPSNTKVDKKVEPKSCDKTHTCPPCPAPELLGGPSVFLFPPKPKDTLYISRTPEVTCVVVDVSHEDPEVKFNWYVDGVEVHNAKTKPREEQYNSTYRVVSVLTVLHQDWLNGKEYKCKVSNKALPAPIEKTISKAKGQPREPQVYTLPPSRDELTKNQVSLTCLVKGFYPSDIAVEWESNGQPENNYKTTPPVLDSDGSFFLYSKLTVDKSRWQQGNVFSCSVVHEALHYHYTQKSLSLSP light: not shown | 190 nM |
